Results on eight molecules are retold here after article PMC5321513 (Structure (London, England : 1993), 2017).

T1: full-length human 14-3-3γ (human, UniProt P61981 1-247)
T1 sequence (looked up): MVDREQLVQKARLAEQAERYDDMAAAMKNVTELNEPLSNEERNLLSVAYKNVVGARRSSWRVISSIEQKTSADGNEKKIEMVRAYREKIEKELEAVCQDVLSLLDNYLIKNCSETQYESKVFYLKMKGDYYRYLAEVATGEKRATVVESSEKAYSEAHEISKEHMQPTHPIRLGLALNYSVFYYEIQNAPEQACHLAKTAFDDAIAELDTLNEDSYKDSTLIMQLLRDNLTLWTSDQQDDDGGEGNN

T2: full-length human 14-3-3ζ (human, UniProt P63104 1-245)
T2 sequence (looked up): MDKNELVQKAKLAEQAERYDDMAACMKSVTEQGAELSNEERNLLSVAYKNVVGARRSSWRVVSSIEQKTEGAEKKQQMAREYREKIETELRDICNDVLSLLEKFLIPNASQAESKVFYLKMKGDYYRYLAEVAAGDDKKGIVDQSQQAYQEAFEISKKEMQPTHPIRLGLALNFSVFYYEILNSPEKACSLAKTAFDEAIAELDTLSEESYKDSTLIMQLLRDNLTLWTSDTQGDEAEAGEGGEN

T3: 14-3-3τ (1-230) (human, UniProt P27348 1-230)
T3 sequence: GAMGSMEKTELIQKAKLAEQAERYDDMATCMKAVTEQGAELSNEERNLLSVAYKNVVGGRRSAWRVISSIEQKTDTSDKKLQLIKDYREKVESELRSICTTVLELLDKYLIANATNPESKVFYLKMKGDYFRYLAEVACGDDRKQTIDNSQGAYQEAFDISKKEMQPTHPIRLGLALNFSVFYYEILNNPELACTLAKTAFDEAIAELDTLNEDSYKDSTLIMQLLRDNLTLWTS

T4: 14-3-3ε (1-232) (human, UniProt P62258 1-232)
T4 sequence: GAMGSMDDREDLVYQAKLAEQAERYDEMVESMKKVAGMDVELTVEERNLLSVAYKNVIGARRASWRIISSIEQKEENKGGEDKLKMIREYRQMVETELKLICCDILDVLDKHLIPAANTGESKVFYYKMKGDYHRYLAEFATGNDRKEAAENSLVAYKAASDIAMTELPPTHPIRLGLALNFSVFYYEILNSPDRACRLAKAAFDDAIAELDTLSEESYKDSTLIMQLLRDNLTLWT

T5: 14-3-3β (1-232) (human, UniProt P31946 1-232)
T5 sequence: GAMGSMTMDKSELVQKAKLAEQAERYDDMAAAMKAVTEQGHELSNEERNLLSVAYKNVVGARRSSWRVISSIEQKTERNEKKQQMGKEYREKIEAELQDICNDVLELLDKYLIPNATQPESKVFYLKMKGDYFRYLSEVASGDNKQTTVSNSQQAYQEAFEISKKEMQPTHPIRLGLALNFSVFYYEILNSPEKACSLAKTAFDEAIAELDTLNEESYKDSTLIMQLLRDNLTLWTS

T6: 14-3-3η (1-235) (human, UniProt Q04917 1-235)
T6 sequence: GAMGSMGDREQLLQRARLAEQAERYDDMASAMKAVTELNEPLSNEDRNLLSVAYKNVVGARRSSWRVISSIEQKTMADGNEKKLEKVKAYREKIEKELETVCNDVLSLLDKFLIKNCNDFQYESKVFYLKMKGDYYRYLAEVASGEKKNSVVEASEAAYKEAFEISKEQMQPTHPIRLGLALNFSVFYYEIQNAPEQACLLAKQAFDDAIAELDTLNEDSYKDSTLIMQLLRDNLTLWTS

B1: pHSPB6(11-23) phosphopeptide (peptide, UniProt O14558 11-23, looked up)
peptide: H-WLRRA[pS]APLPGLS-OH
SMILES: CC(C)C[C@H](NC(=O)CNC(=O)[C@@H]1CCCN1C(=O)[C@H](CC(C)C)NC(=O)[C@@H]1CCCN1C(=O)[C@H](C)NC(=O)[C@H](COP(=O)(O)O)NC(=O)[C@H](C)NC(=O)[C@H](CCCNC(=N)N)NC(=O)[C@H](CCCNC(=N)N)NC(=O)[C@H](CC(C)C)NC(=O)[C@@H](N)Cc1c[nH]c2ccccc12)C(=O)N[C@@H](CO)C(=O)O
B2: HSPB6 ACD (residues 72 to 149) (domain or fragment, human, UniProt O14558 72-149, looked up)
chain: GHFSVLLDVKHFSPEEIAVKVVGEHVEVHARHEERPDEHGFVAREFHRRYRLPPGVDPAAVTSALSPEGVLSIQAAPA
B3: 14-3-3σ Clu3 (1-231) (domain or fragment, human)
chain: GPHMERASLIQKAKLAEQAERYEDMAAFMKGAVEKGEELSCEERNLLSVAYKNVVGGQRAAWRVLSSIEQKSNEEGSAAAGPEVREYREKVETELQGVCDTVLGLLDSHLIKEAGDAESRVFYLKMKGDYYRYLAEVATGDDKKRIIDSARSAYQEAMDISKKEMPPTNPIRLGLALNFSVFHYEIANSPEEAISLAKTTFDEAMADLHTLSEDSYKDSTLIMQLLRDNLTLWT
B4: 14-3-3σ Clu1 (1-231) (domain or fragment, human)
chain: B3 chain with A78E, A79E, A80K, K162A, K163A, E164A
B5: full-length pHSPB6 (1-160) (natural protein, human, UniProt O14558 1-160, looked up)
chain: MEIPVPVQPSWLRRASAPLPGLSAPGRLFDQRFGEGLLEAELAALCPTTLAPYYLRAPSVALPVAQVPTDPGHFSVLLDVKHFSPEEIAVKVVGEHVEVHARHEERPDEHGFVAREFHRRYRLPPGVDPAAVTSALSPEGVLSIQAAPASAQAPPPAAAK
modifications: phosphoserine at 16
B6: 14-3-3σ WT (1-231) (domain or fragment, human)
chain: GAMGSMERASLIQKAKLAEQAERYEDMAAFMKGAVEKGEELSCEERNLLSVAYKNVVGGQRAAWRVLSSIEQKSNEEGSEEKGPEVREYREKVETELQGVCDTVLGLLDSHLIKEAGDAESRVFYLKMKGDYYRYLAEVATGDDKKRIIDSARSAYQEAMDISKKEMPPTNPIRLGLALNFSVFHYEIANSPEEAISLAKTTFDEAMADLHTLSEDSYKDSTLIMQLLRDNLTLWT
B7: pHSPB6 (1-149) (domain or fragment, human, UniProt O14558 1-149, looked up)
chain: MEIPVPVQPSWLRRASAPLPGLSAPGRLFDQRFGEGLLEAELAALCPTTLAPYYLRAPSVALPVAQVPTDPGHFSVLLDVKHFSPEEIAVKVVGEHVEVHARHEERPDEHGFVAREFHRRYRLPPGVDPAAVTSALSPEGVLSIQAAPA
modifications: phosphoserine at 16
B8: pHSPB6 (7-153) (domain or fragment, human, UniProt O14558 7-153, looked up)
chain: VQPSWLRRASAPLPGLSAPGRLFDQRFGEGLLEAELAALCPTTLAPYYLRAPSVALPVAQVPTDPGHFSVLLDVKHFSPEEIAVKVVGEHVEVHARHEERPDEHGFVAREFHRRYRLPPGVDPAAVTSALSPEGVLSIQAAPASAQA
modifications: phosphoserine at 16

The target in data set [1] is T1, full-length human 14-3-3γ. Put plainly: ITC. On the technique in general: ITC needs no label: the signal is the heat of the interaction.
Data set [2] has as its target B6. Briefly: ITC.
The target of data set [3] is B6. Briefly: other fluorescence titration.
The data set “crystal structure” deals with the molecule itself. Put plainly: crystal structure.
Data set [4] addresses B4. Put plainly: crystal structure.
The target in data set [5] is T2, full-length human 14-3-3ζ. Put plainly: SEC. For orientation: SEC sorts molecules by how far they enter the pores of the column.
The target in another data set is T3, 14-3-3τ (1-230). Briefly: SEC.
For a further data set, the target named is T4, 14-3-3ε (1-232). Briefly: SEC.
Another data set addresses T5, 14-3-3β (1-232). Put plainly: SEC.
The target in another data set is T6, 14-3-3η (1-235). Put plainly: SEC.
For data set [6], the target named is T1, full-length human 14-3-3γ. Put plainly: SEC.
Data set [7] concerns the target B4. Put plainly: crystal structure. This is another data set of the same source.
For data set [8], the target named is B6. Briefly: SEC.

Where a chain is given by its changes, count along the chain named. Like-named read-outs stand apart in the source and are kept apart here. [ ]: non-standard residue; d: D form. pS = N[C@@H](COP(=O)(O)O)C(=O)O

As to B1, the equilibrium dissociation constant (Kd) (commonly a measure of binding affinity in units of concentration) in [1] was 2.3 ± 0.3 µM; in the data set with 14-3-3σ WT (1-231) [2], 6.3 ± 0.5 µM; in the data set with 14-3-3σ WT (1-231) [3] it was 5.2 ± 0.5 µM. In addition, the “stoichiometry N” value (in data set [1]; with 14-3-3σ WT (1-231) [2]) was 1 each time. For the same molecule, it took 28.9 ± 0.9 µM to reach half-maximal inhibition with 14-3-3σ WT (1-231) [3] (IC50).

Turning to B2, the binding result in “crystal structure” is listed as “binds”.

On to B3, for which the binding result in “crystal structure” was “binds”.

In the case of B4, the binding result in the data set “crystal structure” is “binds”.

Consider B5, for which the binding result (with 14-3-3σ Clu1 (1-231) [4]; in data set [5]; in the data set with 14-3-3τ (1-230); with 14-3-3ε (1-232); with 14-3-3β (1-232); in the data set with 14-3-3η (1-235)) was “binds” each time. In addition, the binding result in data set [6] is on record as “binds”.

Take B6: the binding result in the data set “crystal structure” is reported as “binds”.

Take B7: the binding result (with 14-3-3σ Clu1 (1-231) [7]; in [5]; with 14-3-3τ (1-230); in the data set with 14-3-3ε (1-232); in the data set with 14-3-3β (1-232); with 14-3-3η (1-235)) was “binds” throughout. For the same molecule, the binding result (in [6]; in the data set with 14-3-3σ WT (1-231) [8]) was “binds” each time.

Turning to B8, the binding result (with 14-3-3σ Clu1 (1-231) [4]; in data set [5]; in the data set with 14-3-3τ (1-230); in the data set with 14-3-3ε (1-232); in the data set with 14-3-3β (1-232); with 14-3-3η (1-235)) was “binds” each time. In addition, the binding result (in [6]; with 14-3-3σ WT (1-231) [8]) was “binds” each time.
